Key:
[1] = Solubility after expression and purification from E. coli; format: physicochemical; settings: expressed and purified from E. coli
human serum albumin = human serum albumin (Homo sapiens, UniProt P02768); assay: Kinetics of binding to immobilized human serum albumin, ProteOn XPR-36 surface plasmon resonance; settings: read-out: KD (affinity) to human albumin, conditions specified herein
Experimental: Human (SEQ ID NO: 36), Rhesus (SEQ ID NO: 37), and murine (SEQ ID NO: 38) serum albumins were purchased from Sigma (Catalogue # A4327 for human, #A3559 for murine, and #A4297 for rhesus) and resuspended in PBS at different concentrations. Each serum albumin was directly immobilized on a ligand channel in the vertical orientation of a GLC chip via standard amine coupling at 2.1 μg/mL at pH 5.0 to obtain surfaces with ligand densities of 500-1000 resonance units. […] The dissociation phases for all concentrations were monitored for two hours at a flow rate of 100 μL/min using PBST (PBS, 0.005% Tween20) as running buffer. A sixth sample (buffer only) was injected to monitor the baseline stability. The surfaces were regenerated using 1 short pulse (18 μL) of 0.8% phosphoric acid.
The raw response data were first processed by subtracting the buffer only responses and the non-specific binding between the analytes and the chip. Processed data of all five concentrations were globally fit to a 1:1 simple langmuir binding model for each ligand surface.

[2] = Thermal stability by differential scanning calorimetry (DSC) in PBS; format: physicochemical
Experimental: A second identical scan was completed on the sample in order to assess the reversibility of thermal folding/unfolding. Data was fit to a 2-state unfolding model in order to calculate the melting temperature.
The melting temperature of ABDCon12 was determined by differential scanning calorimetry using the procedures outlined in Example 2 above in order to investigate the mechanism of stabilization for this molecule.

[3] = Stability on incubation in PBS at 37° C. for 28 days, SDS-PAGE and Mass Spectrometry; format: physicochemical; settings: PBS pH 7.4, 37° C.
Experimental: The FN3 domain-ABDCon fusion proteins were generated using standard cloning techniques. The amino acid sequence of one of the fusion proteins, Tencon-ABDCon is shown in SEQ ID NO: 41. Other FN3 domain-ABDCon fusion proteins made were Tencon25-ABDCon, 83-ABDCon and 71-ABDCon. These proteins were produced with c-terminal poly histidine tags and purified by a combination of nickel affinity and size exclusion chromatography using standard methods. Each purified molecule was incubated in PBS pH 7.4 at 37° C. for 28 days before analysis by SDS-PAGE and Mass Spectrometry.
However one peptide sequence, TIDEWL (SEQ ID NO: 43), is present N-terminal to 5 of these protein domains. […] This protein was expressed with an N-terminal poly histidine tag and purified to homogeneity using standard methods for nickel affinity chromatography and size exclusion chromatography. Purified ABDCon12 was incubated at 37° C. in PBS for 28 days and stability assessed by SDS-PAGE and mass spectrometry.

[4] = Serum half-life / pharmacokinetics of fusion proteins in mice (MSD sandwich ELISA of serum); format: in vivo, BALB/c female mice
Experimental: Tencon25 is a protein scaffold based on a consensus sequence of a fibronectin type III (FN3) repeat protein having a sequence shown in residues 1-90 of SEQ ID NO: 39, and described in US2011/0274623A1. […] The resulting fusion protein has a polypeptide sequence shown in SEQ ID NO: 39. A poly-histidine tag was incorporated at the C-terminus for purification purposes. […] BALB/c female mice were split into 3 groups (N=3 group 1 non-treated control, and N=33 groups 2-3). Mice were treated with a single intravenous dose of the Tencon25-ABDCon fusion protein at 2 mg/kg. The dosing was based upon the weight of the animals on the day of administration. The mice were euthanized at the following time points after the injection: 10 min, 30 min, 1, 4, 6, hours, and 1, 2, 3, 7, 10, 14 days. Blood samples were taken from each animal via cardiac puncture. The blood samples were allowed to clot at room temperature for 30 minutes, but no longer than 1 hour. The blood samples were then centrifuged at approximately 3,500 rpm for 15 minutes. Serum samples were analyzed using a homogenous sandwich ELISA on the Mesoscale Discovery platform. Streptavidin-Gold plates (Mesoscale Discovery) were blocked for 1 hour with Superblock (TBS) Tween-20 (Thermo). Polyclonal anti-Tencon25 antibody was used for both capture (biotinylated) and detection (labeled with MSD Sulfo-Tag (Mesoscale Discovery)) at 0.625 μg/ml. The antigen and antibodies were added to the plates, which were incubated for 2 hours with vigorous shaking at RT. Plates were washed with TBS-T (Sigma) and MSD Read Buffer with Surfactant (Mesoscale Discovery) was added. The plates were read using the MSD Sector Imager 6000. Data was analyzed using GraphPad Prism. Previous studies have shown that a similar, unfused Tencon molecule is cleared from the bloodstream quickly with a serum half-life of approximately 20 minutes in mice.
These molecules were dosed into mice at 2 mg/kg as described above in previous studies and analyzed using identical methods as described for the Tencon25-ABDCon fusions.

Question: For “ABDCon11: ABDCon mutant A37Y, SEQ ID NO: 34 (LKEAKEKAIEELKKAGITSDYYFDLINKAKTVEGVNYLKDEILKA; Non-natural albumin binding domain ABDCon11)”, which “solubility of the expressed mutant” value [1] is on record?
Answer: The value was “insoluble”.

Question: Which Kd (human serum albumin) does the source give for “ABDCon: non-natural albumin binding domain consensus, SEQ ID NO: 21: […] (LKEAKEKAIEELKKAGITSDYYFDLINKAKTVEGVNALKDEILKA; not fully specified)” here?
Answer: Its Kd is 0.075 nM.

Question: With “ABDCon12: ABDCon with TIDEWL added to the N-terminus, SEQ ID NO: 44 (TIDEWLLKEAKEKAIEELKKAGITSDYYFDLINKAKTVEGVNALKDEILKA; ABDCon12)” as the molecule, how does the “melting temperature (thermal stability)” value [2] read?
Answer: Its value is 90.9 °C.

Question: And the “increase of melting temperature compared to the original ABDcon molecule” value ([2]; DSC in PBS)?
Answer: Its value is 9.4 °.

Question: What about the “stability (degradation) after incubation” value [3] of the same molecule?
Answer: Its value is “degradation is occurring exclusively in the polyhistidine tag and not in the ABDCon12 sequence”.

B1: Tencon25-ABDCon: fusion of ABDCon to the c-terminus of Tencon25 FN3 scaffold by a (G4S)2 linker, SEQ ID NO: 39 (protein)
chain: MLPAPKNLVVSEVTEDSARLSWTAPDAAFDSFLIQYQESEKVGEAIVLTVPGSERSYDLTGLKPGTEYTVSIYGVKGGHRSNPLSAIFTTGGGGSGGGGSLKEAKEKAIEELKKAGITSDYYFDLINKAKTVEGVNALKDEILKA
modifications: Fusion protein Tencon25-ABDcon
Question: What does the source list for B1?
Answer: AUC ([4]; 2 mg/kg intravenously): 2054.332 µg·h/mL; Clearance ([4]; 2 mg/kg intravenously): 22.93 mL/day/kg; T (½) ([4]; 2 mg/kg intravenously): 60.42 h; Volume of Distribution ([4]; 2 mg/kg intravenously): 0.0832873 L/kg; serum half-life ([4]; single intravenous dose 2 mg/kg): over 60 hours; stability (degradation) after incubation [3]: degraded

B2: Tencon-ABDCon: FN3 domain-ABDCon fusion protein, SEQ ID NO: 41 (protein)
chain: MLPAPKNLVVSEVTEDSLRLSWTAPDAAFDSFLIQYQESEKVGEAINLTVPGSERSYDLTGLKPGTEYTVSIYGVKGGHRSNPLSAEFTTGGGGSGGGGSLKEAKEKAIEELKKAGITSDYYFDLINKAKTVEGVNALKDEILKA
modifications: Tencon-ABDCon fusion protein
Question: For B2, which “stability (degradation) after incubation” value [3] is on record?
Answer: The value was “degraded”.

From patent US10280200B2, “Non-natural consensus albumin binding domains” (Janssen Biotech, Inc., priority 2012, dated 2019)
